{
  "source": "paper PMC4755594",
  "about": "“Structure of a Bacterial Virus DNA-Injection Protein Complex Reveals a Decameric Assembly with a Constricted Molecular Channel” (PLoS ONE, 2016)",
  "target": "the molecule itself",
  "assay": "SEC; refolded gp12 after Ni-NTA on Hiload Superdex 200; decamer peak at 54.6 ml, monomer peak at 73.6 ml; pooled decamer fractions run again",
  "data": [
    {"protein": "bacteriophage Sf6 DNA-injection protein gp12 (natural protein, UniProt Q716G3 1-431, looked up, gp12 (product of gene 12) of bacteriophage Sf6, 431 residues, 46.5 kDa; ortholog of phage P22 gp20; The same preparation gave a monomer peak and a decamer peak on SEC; the assembled form has 10 copies of the chain; also called Sf6 gp12; gp12 monomer) MATWQGSNGGLLAGIGGVNSNAPSVNDIGNTLQLIRQNNDIERSGANNVGLTALQGLSGIAGVFQQEKQARRQKEFQQAYANAYASGDRGALRQLATQYPDQIESVRKGMGFIDEDQRNSIGTLAAGARLAASSPEAMQSWLQNNANELARVGVDPNNVAQMYQQNPSGFGEFVDHLGMAALGPIDYFNVQDKMAGREIDRGRLAETIRSNKAGEALTVRGQDIQIRGQNISAQNAALSREIQRAELQEKALDRQIARESNQLKLEELKQKQADVRQKADIARADRQAAAQGAVDTFSTALDSLNEIEQSPGLSKAVGIRSAFPTVPGSDAANFEARLDTFKAQTFLPMVQSLKGMGALSDAEGKKLSDAVGALSPKMSEKAFRDSIGKIRNQLESKLSTVKKQFDYQEPVQNTPVQQPTTGSNFSSLWGD", "values": [
      {"measurement": "stoichiometry N", "value": 10}
    ]}
  ]
}
